Laboratory results taken from patent US20190375815A1 (Novartis, published 2019).

Target: T1, CD22-Fc (UniProt P20273 20-687, limits assumed)
T1 construct: Soluble staining reagent, detected with an anti-Fc secondary antibody; not shown: Fc part
T1 sequence (looked up): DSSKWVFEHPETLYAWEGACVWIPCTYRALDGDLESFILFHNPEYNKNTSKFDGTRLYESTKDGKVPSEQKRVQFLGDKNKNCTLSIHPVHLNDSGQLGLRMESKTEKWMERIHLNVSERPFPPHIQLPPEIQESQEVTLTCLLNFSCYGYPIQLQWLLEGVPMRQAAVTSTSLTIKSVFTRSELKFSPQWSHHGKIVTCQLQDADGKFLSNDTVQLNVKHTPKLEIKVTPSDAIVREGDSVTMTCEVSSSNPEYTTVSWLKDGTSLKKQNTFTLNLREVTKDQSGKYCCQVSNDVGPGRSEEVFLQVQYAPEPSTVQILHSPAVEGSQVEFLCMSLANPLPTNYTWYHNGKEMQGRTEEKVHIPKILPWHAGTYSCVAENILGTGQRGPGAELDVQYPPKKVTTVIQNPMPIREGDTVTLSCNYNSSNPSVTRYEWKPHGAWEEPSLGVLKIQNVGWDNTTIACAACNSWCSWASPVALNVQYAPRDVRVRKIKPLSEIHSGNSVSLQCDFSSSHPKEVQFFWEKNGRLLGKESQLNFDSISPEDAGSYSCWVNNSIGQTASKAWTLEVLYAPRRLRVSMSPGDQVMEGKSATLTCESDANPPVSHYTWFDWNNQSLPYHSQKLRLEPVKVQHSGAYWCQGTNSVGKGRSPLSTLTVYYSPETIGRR
Assay: flow cytometry of transduced JNL cells stained with CD22-Fc and anti-Fc secondary antibody
Text: The Jurkat NFAT Luciferase (JNL) reporter cell line is based on the acute T cell leukemia line Jurkat. The line was modified to express luciferase under control of the Nuclear Factor of Activated T cells (NFAT) response element. For the transduction with TCARs, 400,000 JNL cells/well of a 12-well plate were transduced with a multiplicity of infection (MOI) of 1.5. Frozen virus-containing supernatant was thawed at room temperature and added to the respective wells. One well each was transduced with CD19-TCAR, CD22-TCAR, or CD19-TCAR plus CD22-TCAR (“CD19/22 dual TCAR”) at MOI=1.5 each. The plates were cultured for 6 days.
TCAR-expressing T cells were tested for their target binding capability by flow cytometry. Non-transduced (UTD), CD19-TCAR, CD22-TCAR and CD19/22 dual TCAR expressing JNL cells were tested: cells were stained with CD22-Fc for 30 min at 4° C. After a wash, cells were stained with anti-Fc secondary antibody for 30 min at 4° C. After a second wash, cells were stained with CD19-CAR anti-idiotype antibody (Ab) for 30 min at 4° C. Cells were then analyzed on a FACS LSR Fortessa after a last wash. Data was analyzed using FlowJo software. […] CD22-TCAR expressing cells bound CD22-Fc but were not stained with the CD19-CAR anti-idiotype Ab (FIG. 47C).

B1: CD19scFv-G4S-CD3gECDTM-41BB (other)
chain: EIVMTQSPATLSLSPGERATLSCRASQDISKYLNWYQQKPGQAPRLLIYHTSRLHSGIPARFSGSGSGTDYTLTISSLQPEDFAVYFCQQGNTLPYTFGQGTKLEIKGGGGSGGGGSGGGGSQVQLQESGPGLVKPSETLSLTCTVSGVSLPDYGVSWIRQPPGKGLEWIGVIWGSETTYYSSSLKSRVTISKDNSKNQVSLKLSSVTAADTAVYYCAKHYYYGGSYAMDYWGQGTLVTVSSGGGGSQSIKGNHLVKVYDYQEDGSVLLTCDAEAKNITWFKDGKMIGFLTEDKKKWNLGSNAKDPRGMYQCKGSQNKSKPLQVYYRMCQNCIELNAATISGFLFAEIVSIFVLAVGVYFIAKRGRKKLLYIFKQPFMRPVQTTQEEDGCSCRFPEEEEGGCEL
notes: Chimeric membrane protein: CD19 scFv, G4S linker, CD3 gamma extracellular and transmembrane domains, 4-1BB; Expressed on JNL (Jurkat NFAT luciferase) cells by lentiviral transduction, alone or together with the CD22 TCAR (CD19/22 dual TCAR cells); also called CD19-TCAR; CD19 TCAR
- binding result: no binding
